Measured values as given in patent publication US20040176573A1.
Where two headings read alike, the source gives them in different places.

Key:
HLA-A2 (human) [1] = molecular target: HLA-A2 (human)
HLA-A2 (human) [2] = molecular target: HLA-A2 (human); remark: listed apart in the source

HIV-1 pol476-484 (peptide; other documents disagree on this pair)
C50 (HLA-A2 (human) [1]): 0.2 µM | C50 (HLA-A2 (human) [2]): 0.7 µM
